Experimental data published in article PMC7784689, “Structural mechanism of phospholipids translocation by MlaFEDB complex” (Cell Research, 2020).
Where a chain is given by its changes, count along the chain named.

B1: MlaF (natural protein, E. coli K-12, UniProt P63386 1-269, looked up)
chain: MEQSVANLVDMRDVSFTRGNRCIFDNISLTVPRGKITAIMGPSGIGKTTLLRLIGGQIAPDHGEILFDGENIPAMSRSRLYTVRKRMSMLFQSGALFTDMNVFDNVAYPLREHTQLPAPLLHSTVMMKLEAVGLRGAAKLMPSELSGGMARRAALARAIALEPDLIMFDEPFVGQDPITMGVLVKLISELNSALGVTCVVVSHDVPEVLSIADHAWILADKKIVAHGSAQALQANPDPRVRQFLDGIADGPVPFRYPAGDYHADLLPGS
notes: expressed from the full mlaFEDCB operon amplified from genomic DNA; Homodimer within the 2:2:6:2 MlaFEDB complex; also called NBD protein MlaF
B2: MlaF E170Q (natural protein, E. coli K-12, UniProt P63386 1-269, looked up)
chain: B1 chain with E170Q
notes: MlaF, E. coli K-12, with the catalytic glutamate of Walker B changed to glutamine; expressed from the full mlaFEDCB operon; PDB 7CGE holds the wild-type parent; also called MlaFEQ; EQ mutant; source: E. coli C43(DE3), co-expressed from mutated pET20b-mlaFEDCB, purified as MlaFEQEDB, in nanodisc
B3: MlaD (natural protein, E. coli K-12, UniProt P64604 1-183, looked up)
chain: MQTKKNEIWVGIFLLAALLAALFVCLKAANVTSIRTEPTYTLYATFDNIGGLKARSPVSIGGVVVGRVADITLDPKTYLPRVTLEIEQRYNHIPDTSSLSIRTSGLLGEQYLALNVGFEDPELGTAILKDGDTIQDTKSAMVLEDLIGQFLYGSKGDDNKNSGDAPAAAPGNNETTEPVGTTK
notes: expressed from the full mlaFEDCB operon amplified from genomic DNA; Homo-hexamer within the 2:2:6:2 MlaFEDB complex
B4: MlaE (natural protein, E. coli K-12, UniProt P64606 1-260, looked up)
chain: MLLNALASLGHKGIKTLRTFGRAGLMLFNALVGKPEFRKHAPLLVRQLYNVGVLSMLIIVVSGVFIGMVLGLQGYLVLTTYSAETSLGMLVALSLLRELGPVVAALLFAGRAGSALTAEIGLMRATEQLSSMEMMAVDPLRRVISPRFWAGVISLPLLTVIFVAVGIWGGSLVGVSWKGIDSGFFWSAMQNAVDWRMDLVNCLIKSVVFAITVTWISLFNGYDAIPTSAGISRATTRTVVHSSLAVLGLDFVLTALMFGN
notes: MlaE, the transmembrane (permease) subunit of the MlaFEDB ABC transporter, E. coli K-12; expressed from the full mlaFEDCB operon amplified from genomic DNA; Homodimer within the 2:2:6:2 MlaFEDB complex; also called TMD protein MlaE

Assays:
[1] = target: the molecule itself; test: cryo-EM structure; nucleotide-free MlaFEDB in POPG nanodisc (MSP1D1), 4 mg/mL, 25 mM Tris pH 7.8, 150 mM NaCl; 2.9 Å
[2] = target: the molecule itself; test: cryo-EM structure; MlaFEQEDB (MlaF E170Q) in nanodisc, incubated with 2 mM ATP and 2 mM MgCl2 for 30 min at room temperature; two conformations, EQ_tall (4.3 Å) and EQ_close (3.7 Å)
MlaE = target: B4; test: cryo-EM structure; nucleotide-free MlaFEDB in POPG nanodisc (MSP1D1), 4 mg/mL, 25 mM Tris pH 7.8, 150 mM NaCl; 2.9 Å; settings: both partners purified

| Binder | stoichiometry N [1] | other results |
| --- | --- | --- |
| B1 | 2 | – |
| B2 | – | stoichiometry N [2]: 2 |
| B3 | – | stoichiometry N (MlaE): 3 |
| B4 | 2 | – |
